{
  "source": "paper PMC3250062",
  "molecular_target": "Gal4p BD fused with murine p53 (pGBKT7-53) (murine)",
  "assay": "two-hybrid",
  "data": [
    {"substance": "Gal4 AD fused with the SV40 large T-antigen (pGADT7-T) (natural protein)", "values": [
      {"measurement": "mean GFP fluorescence at 72 hrs", "result": 156},
      {"measurement": "mean GFP fluorescence at 96 hrs", "result": 116},
      {"measurement": "percent GFP positive cells", "result": 69.9, "unit": "%"},
      {"measurement": "percent GFP positive cells at 30-48 hrs", "result": "3 to 5", "unit": "%"},
      {"measurement": "percent GFP positive cells at 72 hrs", "result": 23.8, "unit": "%"},
      {"measurement": "percent GFP positive cells at 96 hrs", "result": 23.5, "unit": "%"}
    ]}
  ]
}
